For 2 molecules, binding result and IC50 results are on record in patent US20050036942A1 (Genentech, published 2005).

One assay addresses T1, murine PSCA (mPSCA) (murine, UniProt P57096 21-95).
T1 construct: also called muPSCA; his Mu PSCA - E. coli
T1 sequence (looked up): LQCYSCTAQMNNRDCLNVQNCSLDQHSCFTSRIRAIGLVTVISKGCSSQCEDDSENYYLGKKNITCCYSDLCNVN
Briefly: direct ELISA, antigen coated at 1 µg/ml. A general note: ELISA stands for enzyme-linked immunosorbent assay.

For assay [1], the target named is gD-tagged human PSCA expressed on transfected cells (Herpes Simplex virus; human, UniProt O43653 12-91).

Method for murine PSCA (mPSCA): HuPSCA and murine PSCA (mPSCA) were coated overnight at 1 μg/ml onto a microtiter plate (Nunc). The anti-PSCA Mab and controls were added to the antigen-coated wells and incubated at room temperature. Unbound antibody was washed off and a horseradish peroxidase (HRP)-conjugated secondary antibody was added to the wells and incubated with the antibodies at room temperature. OPD substrate solution was finally added and concentrated sulfuric acid was used to stop the reaction. The plate was read at 492 nm using a microtiter plate reader.

B1: anti-PSCA monoclonal antibody 6B8.1D7.2B3 (antibody, V domains shown)
VH: EVQLQQSGPDLEKPGASVKISCKPSGNSFTGYYIHWVKQSHGKSLEWIGRVDPNNGFTSYNQKFKGKAILTVDKSSSTAYMELRSLTSEDSAVYYCVGNFFDSWGQGTTLTVSS
VL: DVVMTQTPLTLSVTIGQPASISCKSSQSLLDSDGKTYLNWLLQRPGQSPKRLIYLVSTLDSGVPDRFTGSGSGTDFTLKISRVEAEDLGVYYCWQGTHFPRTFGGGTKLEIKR
notes: also called Asc# 2761; #2761
As for B1, the binding result with murine PSCA (mPSCA) was “no binding”.

B2: anti-PSCA monoclonal antibody 5F2.4H4.1E3 (antibody, V domains shown)
VH: QVQVQQPGAELVKPGAPVKLSCKASGYTFTNYWLNWVKQRPGRGLEWIGRIDPSDSEIHYDQKFKDKATLTVDKSSSTAYIQLSSLTSEDSAVYYCALTGIYAMAYWGQGTSVTVSS
VL: DIVMTQAAPSVPVTPGESVSISCRSSKSLLHSNGNTYLYWFLQRPGQSPQLLIYRMSNLASGVPDRFSGSGSGTAFTLRISRVEAEDVGVYYCLQHLEYPYTFGGGTKLELKR
What is called IC50 is the point on the concentration scale where inhibition reaches its midpoint. Higher therefore signals weaker potency in that assay. With B2, half-maximal inhibition in assay [1] (IC50) required 13 nM.
